Experimental data as given in US20180334499A1 (Pieris, published 2018).
Where a chain is given by its changes, count along the chain named.

Target: T1, recombinant human Ang-2 (human, UniProt O15123 19-496, limits assumed)
T1 construct: also called hAng-2; human angiopoietin-2
T1 sequence (looked up): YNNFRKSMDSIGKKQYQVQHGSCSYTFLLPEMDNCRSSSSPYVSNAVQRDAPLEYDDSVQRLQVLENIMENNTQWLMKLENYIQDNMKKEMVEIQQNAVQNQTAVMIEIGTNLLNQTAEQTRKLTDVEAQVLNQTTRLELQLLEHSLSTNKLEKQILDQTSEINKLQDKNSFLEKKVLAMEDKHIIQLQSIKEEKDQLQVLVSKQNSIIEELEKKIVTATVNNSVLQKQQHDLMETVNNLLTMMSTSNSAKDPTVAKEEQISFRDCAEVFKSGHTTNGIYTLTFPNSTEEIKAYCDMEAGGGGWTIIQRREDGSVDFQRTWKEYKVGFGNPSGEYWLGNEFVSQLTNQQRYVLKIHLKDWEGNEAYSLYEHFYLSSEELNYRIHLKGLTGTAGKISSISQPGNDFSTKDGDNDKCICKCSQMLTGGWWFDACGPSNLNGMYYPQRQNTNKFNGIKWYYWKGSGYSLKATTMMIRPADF
Test: ELISA, recombinant human Ang-2 coated, detection with anti-human IgG Fc-HRP or anti-lipocalin-HRP, signal normalised (RU %)
Method: Bound agents under study were detected via an anti-human-IgG-Fc antibody or anti-lipocalin antibody as described in Example 3. The data was fit with a 1:1 binding model with EC50 value and the maximum signal as free parameters, and a slope that was fixed to unity.
The target was dissolved in PBS (5 μg/mL) and coated overnight on microtiter plates at 4° C. The plate was washed after each incubation step with 80 μL PBS-T five times. The plates were blocked with 2% BSA (w/v) in PBS for 1 h at room temperature and subsequently washed. […] Bound agents under study were detected after incubation for 1 h at room temperature with 1:1000 diluted anti-lipocalin antibody conjugated to HRP in PBS-T or 1:5000 diluted anti-human IgG Fc-HRP (#109-035-098, Jackson […]) in PBS-T. After an additional wash step, fluorogenic HRP substrate (QuantaBlu, Thermo) was added to each well and the fluorescence intensity was detected using a fluorescence microplate reader.

B1: lipocalin mutein of SEQ ID NO: 2 (designed binder)
chain: QDSTSDLIPAPPLSKVPLQQNFQDNQFHGKWYVVGQAGNYILREDKDPGKMWATIYELKEDKSYDVTEVSFGAKKCNYRIWTFVPGSQPGEFTLGGIKSDPGGTSTLVRVVSTNYNQHAMVFFKHVLQNREFFEITLYGRTKELTSELKENFIRFSKSLGLPENHIVFPVPIDQCIDG
notes: hNGAL mutein specific for Ang-2, tested in monomeric form; also called positive control lipocalin mutein; Ang-2-specific lipocalin mutein in monomeric form
With B1 the “EC50 (read off the curve)” value was roughly 0.4 nM.

B2: lipocalin mutein of SEQ ID NO: 3 (designed binder)
chain: B1 chain with Q36H, A73P, D100P
notes: as for B1
In the case of B2, the “EC50 (read off the curve)” value is reported as roughly 0.6 nM.

B3: SEQ ID NO: 1 negative control (other)
chain: QDSTSDLIPAPPLSKVPLQQNFQDNQFQGKWYVVGLAGNAILREDKDPQKMYATIYELKEDKSYNVTSVLFRKKKCDYWIRTFVPGCQPGEFTLGNIKSYPGLTSYLVRVVSTNYNQHAMVFFKKVSQNREYFKITLYGRTKELTSELKENFIRFSKSLGLPENHIVFPVPIDQCIDG
notes: Lipocalin negative control; also called mature hNGAL
B3: no binding (tested: 100 nM).
